Here are results for 13 molecules from US20250034266A1 (ZAI LAB SHANGHAI, published 2025).

The labels stand for the following.
B1: Hu149-8 (antibody, V domains shown)
VH: EVQLVESGGGLVQPGGSLKLSCAASGFTFNTYAMNWVRQASGKGLEWVGRIRSKSNFYATYYAASVKGRFTISRDDSKNTAYLQMNSLKTEDTAVYYCTRGRDYGSSYAMDYWGQGTLVTVSS
VL: DIVMTQSPLSLPVTPGEPASISCRSSKSLLHSNANTYLYWYLQKPGQSPQLLIYRMSNLASGVPDRFSGSGSGTDFTLKISRVEAEDVGVYYCMQHLEYPLTFGGGTKVELK
notes: humanized IgG
B2: Hu348-1 (antibody, V domains shown)
VH: EVQLVESGGGLVQPGGSLKLSCATSGFSFSNYRMHWLRQASGKGLEWVGVITVKSDNYGANYAASVKGRFTISRDDSKSSVYLQMNSLKTEDTAVYYCSSLGRVAYWGQGTLVTVSS
VL: DIQMTQSPSSVSASVGDRVTITCKASQNVDTNVVWYQQKPGQSPKALIYSASSRYSGVPDRFSGSGSGTDFTLTISSLQPEDFATYYCQQHNSFPLTFGQGTKLEIK
notes: humanized IgG
B3: Hu348-7 (antibody, V domains shown)
VH: B2 VH with V50R, A60T, N61A
VL: B2 VL
notes: humanized IgG
B4: Hu348-8 (antibody, V domains shown)
VH: B2 VH with S79N, S80T, V81A
VL: B2 VL
notes: humanized IgG
B5: Hu348-6 (antibody, V domains shown)
VH: B2 VH with L37V
VL: B2 VL
notes: humanized IgG
B6: Hu348-5 (antibody, V domains shown)
VH: B2 VH with T24A, R33A
VL: B2 VL
notes: humanized IgG
B7: Hu348-3 (antibody, V domains shown)
VH: B2 VH
VL: B2 VL with A46L
notes: humanized IgG
B8: Hu348-2 (antibody, V domains shown)
VH: B2 VH
VL: B2 VL with Q42K, S43A
notes: humanized IgG
B9: Hu348-9 (antibody, V domains shown)
VH: B2 VH with S99T
VL: B2 VL
notes: humanized IgG
B10: Hu149-12G1m (antibody, human IgG1)
heavy: EVQLVESGGGLVQPGGSLKLSCAASGFTFNTYAMNWVRQASGKGLEWVGRIRSKSNFYATAYAASVKGRFTISRDDSKNTAYLQMNSLKTEDTAVYYCTRGKEYGSSYAMDYWGQGTLVTVSSASTKGPSVFPLAPSSKSTSGGTAALGCLVKDYFPEPVTVSWNSGALTSGVHTFPAVLQSSGLYSLSSVVTVPSSSLGTQTYICNVNHKPSNTKVDKKVEPKSCDKTHTCPPCPAPELVGGPSVFLLPPKPKDTLMISRTPEVTCVVVDVSHEDPEVKFNWYVDGVEVHNAKTKPPEEQYNSTLRVVSVLTVLHQDWLNGKEYKCKVSNKALPAPIEKTISKAKGQPREPQVYTLPPSRDELTKNQVSLTCLVKGFYPSDIAVEWESNGQPENNYKTTPLVLDSDGSFFLYSKLTVDKSRWQQGNVFSCSVMHEALHNHYTQKSLSLSPGK
VL: B1 VL with Y41F
notes: suffix G1m read as for Hu149-11G1m (L235V/F243L/R292P/Y300L/P396L)
B11: Hu149-12G1x (antibody)
heavy: B1 VH with Y61A, R102K, D103E
VL: B1 VL with Y41F
notes: Fc variant of Hu149-12; not shown: Fc variant 'G1x' is not defined in words
B12: Hu149-11G1x (antibody)
heavy: B1 VH with Y61A, D103E
VL: B1 VL with Y41F
notes: Fc variant of Hu149-11; not shown: Fc variant 'G1x' is not defined in words
B13: Hu149-11G1m (antibody, human IgG1)
heavy: B10 heavy with K102R
VL: B1 VL with Y41F

The EC50 is the concentration that produces a half-maximal response. By IC50 is commonly meant the concentration needed to halve the response being measured. Low values mean higher potency, high ones lower potency.

Changes are numbered by the printed parent chain. Names and notes keep the numbering of the source.

T1 sequence (P51685 whole entry): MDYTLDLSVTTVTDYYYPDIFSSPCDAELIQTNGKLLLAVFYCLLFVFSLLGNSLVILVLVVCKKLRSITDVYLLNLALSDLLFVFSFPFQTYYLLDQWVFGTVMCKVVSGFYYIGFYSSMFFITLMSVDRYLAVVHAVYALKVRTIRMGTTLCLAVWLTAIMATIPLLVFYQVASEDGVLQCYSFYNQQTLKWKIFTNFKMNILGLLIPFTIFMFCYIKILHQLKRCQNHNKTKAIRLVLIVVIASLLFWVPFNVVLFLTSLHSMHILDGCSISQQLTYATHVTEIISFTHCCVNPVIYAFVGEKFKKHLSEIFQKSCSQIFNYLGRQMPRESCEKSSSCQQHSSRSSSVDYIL
T2 sequence (G7NYJ2 entry or part of it): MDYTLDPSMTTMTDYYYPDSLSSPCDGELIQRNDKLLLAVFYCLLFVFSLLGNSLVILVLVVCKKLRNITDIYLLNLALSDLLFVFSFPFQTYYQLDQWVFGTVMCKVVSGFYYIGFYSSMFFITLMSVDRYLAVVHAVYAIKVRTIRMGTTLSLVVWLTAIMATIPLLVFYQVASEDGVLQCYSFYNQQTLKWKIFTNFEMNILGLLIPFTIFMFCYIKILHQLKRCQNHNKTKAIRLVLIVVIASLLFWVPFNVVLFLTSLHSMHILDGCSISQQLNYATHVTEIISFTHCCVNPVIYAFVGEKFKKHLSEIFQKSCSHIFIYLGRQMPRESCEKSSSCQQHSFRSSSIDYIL

The first assay addresses T1, human CCR8 (human, UniProt P51685 1-355).
T1 construct: whole, on cells; also called hCCR8
Put plainly: FACS on HEK293-human CCR8 cells. How it is done:
(§1) A total of 5×10⁴ cells for each well were seeded in 96-well plates and washed with FACS buffer (DPBD containing 1.5% FBS) for once. Antibodies were prepared with 3-fold serial dilution ranging from 100 nM to 0.0017 nM in FACS buffer. Cells were incubated with 50 μL of diluted antibodies at 4° C. for 1 hour. […] After primary antibody incubation, cells were washed for 3 times by FACS buffer. Then, cells were stained by Alexa Flu647 labeled anti-human IgG secondary antibody (Jackson ImmunoResearch, #109606170) or Alexa Flu647 labeled anti-mouse IgG secondary antibody (Jackson ImmunoResearch, #115605072) at 1:600 dilution in FACS buffer for 0.5 hour at 4° C. After washed for 3 times, Flow cytometry was performed to measure the binding.
As for B1, a half-maximal response (EC50) required 0.24 nM and the “Max MFI” value turned out to be 3830 MFI.

A further assay deals with T1, human CCR8. Put plainly: FACS on HEK293-human CCR8 cells. The source holds these as a separate data set.
Turning to B2, the response was half-maximal at 0.122 nM (EC50) and the “Max MFI” value worked out at 5110 MFI.
Turning to B3, the “Max MFI” value was 756 MFI.
Consider B4, for which a half-maximal response (EC50) required 0.144 nM and the “Max MFI” value is 4730 MFI.
On to B5, for which the EC50 worked out at 0.978 nM and the “Max MFI” value was determined as 1980 MFI.
With B6, the “Max MFI” value is 163 MFI.
As for B7, the concentration for a half-maximal effect (EC50) turned out to be 0.108 nM and the “Max MFI” value was 4090 MFI.
Consider B8, for which the EC50 was 0.119 nM and the “Max MFI” value was found to be 4740 MFI.
On to B9, for which the concentration for a half-maximal effect (EC50) came to 0.182 nM and the “Max MFI” value was 4500 MFI.

The next assay deals with T1, human CCR8. Put plainly: FACS on CHO-K1-human CCR8 cells.
Regarding B10, the EC50 was found to be 0.0668 nM and the “Max MFI” value worked out at 183000 MFI.
With B11, a half-maximal effect (EC50) was put at 0.0927 nM and the “Max MFI” value came out at 195000 MFI.
With B12, the EC50 is 0.115 nM and the “Max MFI” value came out at 200000 MFI.
In the case of B13, the response was half-maximal at 0.112 nM (EC50) and the “Max MFI” value turned out to be 193000 MFI.

A further assay has as its target T2, cynomolgus CCR8 (cynomolgus, UniProt G7NYJ2 1-355).
T2 construct: whole, on cells
Put plainly: FACS on HEK293-cynomolgus CCR8 cells. The protocol: as §1
Turning to B1, the “Max MFI” value turned out to be 2420 MFI.

The next assay addresses T2, cynomolgus CCR8. Put plainly: FACS on HEK293-cynomolgus CCR8 cells. The source holds these as a separate data set.
Turning to B10, it took 0.183 nM to reach a half-maximal effect (EC50) and the “Max MFI” value was determined as 3.24e+06 MFI.
The like results for B11 were, in that order, 0.15 nM and 3.65e+06 MFI.
Take B12: a half-maximal response (EC50) required 0.24 nM and the “Max MFI” value amounted to 4.52e+06 MFI.
On to B13, for which the EC50 was 0.217 nM and the “Max MFI” value was determined as 4.34e+06 MFI.

The target in another assay is T2, cynomolgus CCR8. Put plainly: FACS on ExpiCHO-S-cynomolgus CCR8 cells.
As for B2, the “Max MFI” value amounted to 336 MFI.
For B3, the “Max MFI” value was 174 MFI.
B4: the “Max MFI” value was determined as 267 MFI.
In the case of B5, a half-maximal response (EC50) required 31.1 nM and the “Max MFI” value was 82 MFI.
Regarding B6, the “Max MFI” value was 6 MFI.
On to B7, for which the “Max MFI” value stood at 350 MFI.
As to B8, the “Max MFI” value was 296 MFI.
With B9, the “Max MFI” value was determined as 148 MFI.

The target in the next assay is T1, human CCR8. Put plainly: FACS on HuT78 cells (endogenous human CCR8).
On to B10, for which the response was half-maximal at 0.209 nM (EC50) and the “Max MFI” value was 55600 MFI.
In the case of B11, a half-maximal response (EC50) required 0.313 nM and the “Max MFI” value is 52900 MFI.
Turning to B12, the response was half-maximal at 0.427 nM (EC50) and the “Max MFI” value was found to be 52700 MFI.
Consider B13, for which the EC50 worked out at 0.384 nM and the “Max MFI” value was 45700 MFI.

The next assay addresses T1, human CCR8. Put plainly: FACS, competition with CCL1 on CHO-K1-human CCR8 cells. (In general: Flow cytometry measures light scatter and fluorescence of single cells or particles in a stream.)
On to B10, for which the IC50 turned out to be 0.146 nM and the “Max Inhibition (%)” value is 99.6%.
With B11, the IC50 was found to be 0.17 nM and the “Max Inhibition (%)” value amounted to 100%.
Consider B12, for which the IC50 was determined as 0.247 nM and the “Max Inhibition (%)” value turned out to be 99.3%.
As to B13, the IC50 worked out at 0.231 nM and the “Max Inhibition (%)” value was 99.4%.

For a further assay, the target named is T1, human CCR8. Put plainly: FACS, competition with AF647-human CCL1 on CHO-K1-human CCR8 cells.
In the case of B1, the IC50 came out at 1.24 nM and the “Max Inhibition (%)” value was 86.5%.

For the next assay, the target named is T1, human CCR8. Described as above. This is another data set of the same source.
Turning to B2, the half-inhibitory concentration (IC50) was determined as 0.23 nM and the “Max Inhibition (%)” value is 94.1%.
As for B3, the “Max Inhibition (%)” value stood at 25.6%.
B4: the IC50 was determined as 0.358 nM and the “Max Inhibition (%)” value amounted to 88.4%.
For B5, in that order: 1.84 nM and 78.3%.
As for B6, the “Max Inhibition (%)” value is 1.39%.
Turning to B7, the IC50 is 0.362 nM and the “Max Inhibition (%)” value is 83.1%.
Regarding B8, the IC50 was determined as 0.216 nM and the “Max Inhibition (%)” value was 92.4%.
For B9, in that order: 0.333 nM and 88.2%.
